Our source for the self-cleavage values is the RNAGym collection of RNA variant scans (doi:10.7554/elife.80360).

B1: CPEB3 Ribozyme (parent)
chain: GGGGGCCACAGCAGAAGCGUUCACGUCGCGGCCCCUGUCAGAUUCUGGUGAAUCUGCGAAUUCUGCUGU

The variants in the series derive from B1. The experiment in a line: self-cleavage, relative activity (ratio to wild type); higher = more cleavage; co-transcriptional.
Take G2A U69C: the self-cleavage came to 0.457.

Consider G2U U20A, for which the self-cleavage came to 0.0261.

As to G2A G65A, the self-cleavage is 0.163.

For G2C C18G, the self-cleavage amounted to 0.0398. The same measure for G2U C63G: 0.102; for G2U C63A: 0.127.

As for G2U C63U, the self-cleavage was 0.117.

G2U U21C: the self-cleavage was determined as 0.0789.

As to G2C A13C, the self-cleavage is 0.0327. Regarding G3C U44C, the self-cleavage was 0.132. Take G2C U62C: the self-cleavage turned out to be 0.011. The same measure for G2A C22A: 0.0696. Turning to G3A U26C, the self-cleavage turned out to be 0.571. The same measure for G2A A52C: 0.167; for G3C G50U: 0.133; for G3C G50C: 0.0988. Turning to G3C U61A, the self-cleavage amounted to 0.0406. For the variant G3C U61C, the self-cleavage was 0.0948. The same measure for G2U C35G: 0.109; for G2U C35U: 0.0749; for G3A A13C: 0.298.

Consider G2C G48A, for which the self-cleavage is 0.0788. The same measure for G3A C63U: 0.627; for G3A G50C: 0.595; for G3A G50U: 0.582. On to G3A U61G, for which the self-cleavage came out at 0.278. Regarding G3A U49C, the self-cleavage turned out to be 0.705. Regarding G3C G58C, the self-cleavage amounted to 0.0803. The same measure for G2A U61A: 0.0537. Take G2A U61G: the self-cleavage amounted to 0.0696. In the case of G3C U43C, the self-cleavage worked out at 0.121.

As to G2U G4A, the self-cleavage was determined as 0.0959.

G2A A40G: the self-cleavage was found to be 0.105. The same measure for G2A A40C: 0.0341. As for G2A U20A, the figure is 0.0398; as for G2A U20C, 0.0328; as for G3A U64A, 0.458. Regarding G3A U64C, the self-cleavage turned out to be 0.436.

Consider G3A U64G, for which the self-cleavage was found to be 0.521. On to G2C G14U, for which the self-cleavage was 0.0531. The same measure for G3C C34U: 0.45; for G3C C34A: 0.465; for G3A G58A: 0.315.

Consider G3A G58C, for which the self-cleavage turned out to be 0.338. Consider G2C C12A, for which the self-cleavage came out at 0.0486. The same measure for G2C G37C: 0.0304; for G2C U55A: 0.0429; for G3C C33G: 0.0238. As for G3C G28U, the self-cleavage worked out at 0.0508.

As to G2U A13G, the self-cleavage worked out at 0.0748. For G2U C66A, the self-cleavage turned out to be 0.073. In the case of G2U C66U, the self-cleavage is 0.096.

Regarding G2A G31C, the self-cleavage amounted to 0.0358. As for G2A G31U, the figure is 0.0712; as for G2A C18A, 0.0515; as for G2A C18G, 0.0324.

As to G3A C18A, the self-cleavage was determined as 0.066.

For the variant G3A C18G, the self-cleavage amounted to 0.0813. As for G3A U36A, the self-cleavage came to 0.0867. With G3A U36G, the self-cleavage is 0.206. On to G3A U36C, for which the self-cleavage turned out to be 0.433.

Take G2U A16G: the self-cleavage amounted to 0.0825. The same measure for G2U A16C: 0.0327.

Take G2U C34U: the self-cleavage was found to be 0.103. Take G2C G68U: the self-cleavage came to 0.0864. On to G3A U43G, for which the self-cleavage came out at 0.422.

In the case of G3A U43A, the self-cleavage is 0.356.

For G3A U43C, the self-cleavage came to 0.41.

As for G2C U36G, the self-cleavage worked out at 0.052.

In the case of G2C U36A, the self-cleavage turned out to be 0.0481. G3U C12G: the self-cleavage is 0.0607. The same measure for G3U C12U: 0.169; for G2C U44A: 0.0552. As for G2C U44G, the figure is 0.06. As for G2C A59G, the figure is 0.106; as for G2C C63U, 0.0396; as for G2C C63A, 0.0459. As to G3A G56C, the self-cleavage was found to be 0.253.

As to G2U U49G, the self-cleavage worked out at 0.0431. The same measure for G2U U49A: 0.0944; for G2U U49C: 0.0667; for G2A C12U: 0.201. As for G2A C12A, the figure is 0.0566; as for G2A C33G, 0.0627.

As to G3A A60G, the self-cleavage is 0.32. Turning to G3A A60C, the self-cleavage is 0.152. As for G2C G58A, the self-cleavage was determined as 0.0591. As for G3C A60U, the figure is 0.0697. The same measure for G3C U26A: 0.0495; for G2A C63A: 0.104.

G2C G25A: the self-cleavage is 0.0488. The same measure for G3U C29A: 0.0168; for G2U G5C: 0.0693. The same measure for G2U G5A: 0.0678. For the variant G2A A42G, the self-cleavage turned out to be 0.196. As for G2U C27A, the figure is 0.0514. With G2A C32G, the self-cleavage was determined as 0.0194. Consider G2A C32A, for which the self-cleavage is 0.0579. As for G3C G31U, the figure is 0.048; as for G3C G31A, 0.0559.

Turning to G3A A16G, the self-cleavage is 0.315. As for G3U A40C, the figure is 0.0469; as for G2U C29U, 0.0589; as for G2U G41C, 0.0505. As for G2U G41U, the figure is 0.0665. As for G3C C39A, the figure is 0.0598; as for G2C A23U, 0.1.

Regarding G2C A23G, the self-cleavage was 0.0311. As for G2U U64C, the figure is 0.0967. In the case of G2U U64G, the self-cleavage was 0.0605.

Regarding G2U C57U, the self-cleavage stood at 0.0179. As for G2C U53C, the self-cleavage stood at 0.0834.

As to G2C U53A, the self-cleavage came to 0.0158. On to G3C C32U, for which the self-cleavage came out at 0.0592. As for G3C C32G, the self-cleavage came to 0.0514.

For the variant G2U A59G, the self-cleavage stood at 0.0714. Turning to G3C U53A, the self-cleavage is 0.0705.

As for G3C A10U, the self-cleavage came to 0.334. As to G2C A8G, the self-cleavage is 0.0226. Consider G3A G65C, for which the self-cleavage amounted to 0.338.

For the variant G2A A23U, the self-cleavage is 0.284. The same measure for G3A G41C: 0.198; for G2U G17C: 0.0396. As for G2U G17U, the figure is 0.039. As for G2A A15G, the figure is 0.166. G2U G47A: the self-cleavage is 0.0706.

For the variant G2C G30C, the self-cleavage is 0.072. As for G3C C24A, the figure is 0.0571; as for G2A G28C, 0.0268.

For the variant G3A A52C, the self-cleavage is 0.577.

As for G2C G19A, the self-cleavage was found to be 0.0455. For G2A C45U, the self-cleavage amounted to 0.117. As to G2A C45A, the self-cleavage worked out at 0.132. Consider G3A C45G, for which the self-cleavage stood at 0.536. The same measure for G3A C45A: 0.544; for G2C A51U: 0.056; for G3C C54U: 0.125.

In the case of G3C C54A, the self-cleavage was determined as 0.0635. As to G2U U55C, the self-cleavage is 0.0989. Take G2U U55G: the self-cleavage amounted to 0.0565. On to G2U U38A, for which the self-cleavage came to 0.0631. As to G2U U38C, the self-cleavage amounted to 0.095. As for G2A G4A, the figure is 0.0501.

With G2A G4U, the self-cleavage came to 0.0384.

For G2A G4C, the self-cleavage amounted to 0.0317. As for G2U G48C, the figure is 0.0769; as for G3C C45G, 0.0888.

G3A C33A: the self-cleavage worked out at 0.193. As for G3A C34U, the figure is 0.91; as for G2U G28U, 0.0242; as for G3C G41C, 0.0352. As for G3C G56C, the figure is 0.0668; as for G3C G56A, 0.0675; as for G2A G19C, 0.0616.

For G3A C27G, the self-cleavage was determined as 0.056. Consider G3A C27A, for which the self-cleavage is 0.153. For the variant G3A C27U, the self-cleavage was 0.0889. G2C C66G: the self-cleavage was determined as 0.0186. As for G2U G14A, the figure is 0.0496; as for G3C U38C, 0.0718; as for G3U A52C, 0.0886. The same measure for G3U A52U: 0.142. As for G3U A52G, the figure is 0.122. Turning to G2U G37C, the self-cleavage came out at 0.0385. As for G2C G50A, the figure is 0.0951; as for G2U G50A, 0.0766.

G3A C35A: the self-cleavage was found to be 0.102.
